From a protein production outcome set (Wang et al. 2014)

Experiment: label from the status in PepcDB records
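Further: failed if final PepcDB status was selected cloned or expressed and not failed if soluble or beyond.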

Sequence | protein production
MTNFTQSINFPGSLPLTRNLLAAACFFAMTQASAAGFISDVKQISDQEVRSGEGYYRADGKWLVYQAEVAGENPFYQIYLKNIASGEVQQVSPGIGKTTCSWVHPIQEKVLFSSTHEDPEAKAKMTTEIEQRKSGQRRSYAWDYDEFYDIYETDFAGGNIRNLTHTKGYDAEASWSPDGRLIAFASNRRAYSEPLSEAETVLFSNDPSSMIDIYIMDADGSNVKRLTHTNSYDGGPFFSPDGKRIVWRRFSENGQEAEIFTMNTDGSDQKQITRLNKMSWAPFYHPSNQYIIFATNVHGHRNFELYIVDIDGKKEPVRVTDEEGFDGLPVFTPDGQYITWTSDRTPDHKGRLFHGKWDHKKALESLGLE | failed
MDTAVNESLSISYNLEQFLIVLSVSLSIATLSKTVPILRKIPYTLLLVIVGMALAFVDVKLINLSPELIMEIFLPPLLFEAAWNLQWRNLKENWFPITLFATLGVVICVVGIAFPLSYWGGMELAIAFLAAAALSATDPVSVIALFKELGASKKLNTLMEGESLFNDGVAVVVFLILVGIPLGTSTFDLSVTLARFVTVIGIGVGCGLVIGFSLSLLTQRFDLPFVEQSLTLVSAYGAYILAENLGGSGVIGVVVVGMVLGNYGSRIGMNPRTRLIVSIFWEFVAFFVNSIIFLLIGDQIGLSSLSDHLNLILIAIAAVVVTRLVSVFGLSLISNKVSDQISSTHITLQEQTVLWWGGLRGSVAIAVALSVPQAIAERQAIIDIVFGVVLFTLLVQGLTTQFVLKGLDLIGDQPQRLEYAELVSRQIALRRVLAELEKTDEFPDINPERLRYKQELVQGQLQSVTDKLKLLLQEYPLLQEVANKKFDQTVLDIEAETYADLIRMGRLEENIMPLLVTLEGENVAEPS | failed
MMKIYLIEHVIGAVAYDENGNIVDYITNPRDLGKITEELLNNEKGIPFSATVELLKKVNPQEVVVENEAEVPKLQALGYRVSYEPYSKVSRIFRESLPKVAIDIKFASNEEDYYNFLHELSLEYTRRKLRSAAQKRDLLAIQAVRAMDDIDKTINLFSERLREWYSIHFPELDKLIEDHEEYATIVSRFGDRGFLTIDSLKELGFNEQRINRILDAAKKSIGADISEDDLSAMRMIANTILDLYNIRRNLNNYLEGVMKEVAPNVTALVGPALGARLLSIAGSLDELAKMPASTIQVLGAEKALFRALRSGGRPPKHGIIFQYPAIHTSPRWQRGKIARALAAKLAIAARVDAFSGRFIGDQLNEQLKKRIDEIKEKFAQPPPKKPQQQKPQQPQKQQAKGKKGGKRRGKRK | failed
MPEAPGDTPLALDLLRRLRRALGAAGLPELEAWDLLAAATGWPRKALYGRLTSPLPQEALDRAEALLKRRLQGYPLQYLVGEVEFFGLPLRVEEGVLIPRPETEGLVELALGLPLPPAPRILDVGTGTGAIALALKRALPEAEVYATEVDPKALALARENAERLGLAVVFLPAPLTGGLKDLDLVVSNPPYLPEAYREKAPRELGYESPLALYAGPEGLSVARPLAEEARRSLKPGGYLLLELAPENVHLLARELREKGWKEVAVLPDLAGRDRYLRARRPPEEAEGEEGRLHRPHLPQSLHPHPDHPGPPPEEEEALGQVRLRGEAGVLRGHALLQKALPDPFPHLQEDGPGPGLPRVEEGGAGENLPRGPQALFRVKAGPDEEDAVLVPRPLQDGKPRALGPAEKPHALEAQEEGPPPGRLFQRHGALLRAQAHLPQVEPLAQAGEAFCELALLPLQHPGLDEEALDPPLLLGELLAHPGQGLPEPGGLLLQNLPGAP | failed
MSLTVKDILDAIQSPDSTPADIAALPLPESYRAITVHKDETEMFAGLETRDKDPRKSIHLDDVPVPELGPGEALVAVMASSVNYNSVWTSIFEPLSTFGFLERYGRVSDLAKRHDLPYHVIGSDLAGVVLRTGPGVNAWQAGDEVVAHCLSVELESSDGHNDTMLDPEQRIWGFETNFGGLAEIALVKSNQLMPKPDHLSWEEAAAPGLVNSTAYRQLVSRNGAGMKQGDNVLIWGASGGLGSYATQFALAGGANPICVVSSPQKAEICRAMGAEAIIDRNAEGYRFWKDENTQDPKEWKRFGKRIRELTGGEDIDIVFEHPGRETFGASVFVTRKGGTITTCASTSGYMHEYDNRYLWMSLKRIIGSHFANYREAWEANRLIAKGRIHPTLSKVYSLEDTGQAAYDVHRNLHQGKVGVLCLAPEEGLGVRDREKRAQHLDAINRFRNEGHHHHHH | not failed
MRQKELETADWQRNLKIAWIGTFFTGASFSIVMPFMALYVEELGVKGAMVEWYAGLSVALSALASALVSPVWGHLADRYGRKPMMIRASMVMTFTMGGLAFVPNVFWMLFLRILNGLFAGYVPNATALIASQAPQQRSGYALGTLSTGLTAGVLIGPLLGGAISEAFGMRGTFLLVGLILFICCLLTIFGLREDFQLIEKVEIMSFSQVFAKIPSKSLLIGLFVTSMIIQISAQSIAPILALYIRYLGQSDNILFYSGLIVSAMGFSSLLSTPYLGRLGDRIGNHRLLLMGLFYSFLLYFLCGFAGSALQLGLLRFAYGFGVGALTPSVNSLLTKMTPKEGISRIFSLNQSFSYIGQVLGPFVGSAVATGLGYRWVFFVTAAIVFGNFVCSLIIFRKSLGVKNIGES | failed
MATNIPCEVVAFSDRKLKPLIYVYSFPGLTRRTKLKGNILLDYTLLSFSYCGTYLASYSSLPEFELALWNWESSIILCKKSQPGMDVNQMSFNPMNWRQLCLSSPSTVSVWTIERSNQEHCFRARSVKLPLEDGSFFNETDVVFPQSLPKDLIYGPVLPLSAIAGLVGKEAETFRPKDDLYPLLHPTMHCWTPTSDLYIGCEEGHLLMINGDTLQVTVLNKIEEESPLEDRRNFISPVTLVYQKEGVLASGIDGFVYSFIIKDRSYMIEDFLEIERPVEHMTFSPNYTVLLIQTDKGSVYIYTFGKEPTLNKVLDACDGKFQAIDFITPGTQYFMTLTYSGEICVWWLEDCACVSKIYLNTLATVLACCPSSLSAAVGTEDGSVYFISVYDKESPQVVHKAFLSESSVQHVV | failed
TDVSSWIVYPSGKVYVAAVRLERVVLTCELCRPWAEVRWTKDGEEVVESPALLLQKEDTVRRLVLPAVQLEDSGEYLCEIDDESASFTVTVTEPPVRIIY | not failed
MFSIIWMLFTPLLLLCGIAGGIFLIVTGIKYRKLLVGLMGLLSLSFVTLPFVLLSVGIHIDTIFPIPTALYWTLFSLTGLLAGVSGVQAKIKSIRNMGFIIFTIGILGVIFWELMSVGDSFYI | failed
MAVLYAGRPVQKCERSRLMFNIDQPDSAPDNEDHDGDVVMHGQGSFFGRRKGHKLRAHQADLIENLLPHLSLQIDSPAPEPLTTLFDPPVEHMRLEIGFGGGEHLIAEALAHPDTGFIGAEPYVNGMAKILARIEAENIRNIRLFAGDASELLAWVPAGSLARIDLIHPDPWPKRRHWKRRFVQDATVAAMARALTPHGEFRFVCDIDGYTAWTLAHLLRAPCFDWLAQRADDWRKPWPNYTMTRYGRKAEREGRRANYLRFERL | failed
MSVLAIIFLLNLKPTIYSIVGIFLIIILDVTVAVALYFLLRPVSKNISMLMSLFRIVYAAIFTTALYKIHDLTAFYSILDLGYIFFGIHLFLLGFLVYKSGYMPKWLGALIFIASTGYIIDPLLRFSGYAVEIGMYTFFGEVLFAFWLVIKGRKLSEVVSTP | failed
MIFMRTEDVRRDIPLLRDHVYLDAASTTPTPLPVVRAMTEYFKEYNANTGRGAYSLVLRATRKLQEAREKVAGFINASSDEIVFTKNTSEAINIVAGGLRFRKGDSVVVPNIEHHSNFLPWLRLRERGVDVRVVKADEGGVVDPGRIEDAVDETTRLVTVTHISNALGTVQDVKEIGRIAHDVGALYLVDAAQSIGHMEVDVRAIGADFAAFPGHKGTLGPVGTGFLYCSTDVQGELEPLMLGGGTVLDVSEDGYVLEDFPAKFEAGTLNIAGFIGLGASIDYMNRIGIRRIQKHGMKMTEELHATVSSIDGIECYGDPQNIYGILSFNINNMDPHDVAKILDETAGICVRSGHHCAIPAMKHLALHETGGTVRASIHYYNTSEEIQLLGETLEEIAGMG | failed
MSKPHALRGVLANLISESQSPLTPESIIREFRATSDRRLPACDLIKVLVSISEKRPNFAEVTKEISHILQNKDPMYALLVFVERYSECKPVSESSSSTSLSAMGLPHGNKTSDVNSAAGSVPTTLAIASTSTILTTSQNVSGSTRLSLTQSQDFPTSTPVNCKKATESDTTPVVFVRRGPMDRNRGAGKDERNDLSVIKERVLNAVSDQSLSGYRSVTNKTGNSPKSMPNDLVTLTDVPDEYRTHLLWEYYKVDGDKVPRAEIAAMPLLSQESMLLDELLHCLTGIRESLLVPQKPIISAVGLAKYDTDFDIHTHLDRSLTHQVREILPLASYFMGVQKIIAATDGLGQVMNSLNEALQELTHDFYLIIVQAEQELRHNRLTLQKLLYYLQPTMWVMHEVWSSLVIIQLSDSRDAEVLTYLHERIKRLEGNKDAQQLIIGLVRKAAKPYMRMLQMWIQKGVIVDRHREFLVVDNEVIHRDELPEHYSDDYWERRYTLRDEQIPSFLAKYSDKILRTGKYLNVIRQCGKRVMPTQEMNLEFDPTSERHVSVINDAYYFAARMLLDVLLTENDLMGHLQSVKRYLLLNQGDFTMQFMDACEDELTKNVDHVLPMTLENLLGLTLRISSARNDPYKDDLHCELLPYDLVTQMSKIMKKEENWQAQPRLDLSGLECFAFTYEVKWPCSLVLNHISISKYQMLFRQLFYCKHVERQLCKIWKENSIARQFEPQAASLYRAAFTLRQRMMNAIQNLEYYMMIEIIEPNWHIFIEKMKTVENVDNVLRLHQDFLDSCLKNCMLTESSHLNRSIFKLCKICLKYCEFIQITQRYFQDAELRSMVRDSADSSESEQESLHCPQIETPLDPTDTFSERVRRFDLEFTQLLISFLKQINSMAKKNTADCFMNLVHRINFNAFYTDQMDKMCVEDAIG | failed
MILLTSVLAIVSVILLTLPLLEAYSLNSSLVGGAVSPGATYSYKMNAVLINFYHNNSISHLLGNFSFTTGYINITMENGYATFSVKLYGQPAGENVTLADSFVLKASDHSSLFESFFPSGLVEAGEFVNVFNNTGQYYGAASAFSSVNVGKGTLFSTSQMVKLINVPEQPSGYFENVSRELNANSVYYIESPSHSFLSHIVFTGNSTVISALLGSSSVSNVTLLYISLEKTDVAVETLNVMHYVMHYIAVVVILWILGVVYMISLYRRVSLKQRR | failed
MNKFFLESERLIIRPLEESDYDSWYTSFMNRGPSLTPFDDGILDMSMCDINWFKNLVNLQRKEWESDIVYIFGVFLKSGEHVGMLNIVTLARADMQWGELGYVFHNQFWSNGYAFESILALLNSTYEKLGFHHIEAQITPGNERSEKLVRRLGLTYETTRKDFSFENGKWTDKLIYSINLHNNNLE | failed
MHSHPSPKFSVITVTYNAEKVLEDTVQSVISQTYHHVEYIIIDGASKDGTLEIVNRYRNRINQLVSEPDKGLYDAMNKGIALATGDYLCFLNAGDSFHEDDTLQKMVHSINGNELPDILYGETALVDAERHFLRMRRLSAPETLNWKSFKQGMLVCHQAFFPRHTLIEPYDLQYRFSADFDWCIHIMKKARTFHNTHLILIDYLAEGMTTQNHKASLLERFRIMTRHYGLLSTLAHHAWFVVRSFSRNSATPSDAPFLEHHHHHH | failed
